Test results: PMC2173853 (The Journal of Cell Biology, 2002)
Where two headings read alike, the source gives them in different places.

Tests used:
Test in all cases: pull-down
[1] = target: T1, heterodimeric GST–Sed5p–His10-Sly1p complex bound to beads (S. cerevisiae, UniProt Q01590;P22213)
T1 sequence 1: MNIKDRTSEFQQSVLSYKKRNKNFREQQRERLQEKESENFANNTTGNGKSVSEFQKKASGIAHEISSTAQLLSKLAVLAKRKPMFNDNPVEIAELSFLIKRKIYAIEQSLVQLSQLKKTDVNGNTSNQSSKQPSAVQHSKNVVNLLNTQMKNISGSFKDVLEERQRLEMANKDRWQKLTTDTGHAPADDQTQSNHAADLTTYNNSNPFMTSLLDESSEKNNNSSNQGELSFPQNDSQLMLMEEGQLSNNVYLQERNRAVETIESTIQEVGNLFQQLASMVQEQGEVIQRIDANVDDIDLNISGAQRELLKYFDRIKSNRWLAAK
T1 sequence 2: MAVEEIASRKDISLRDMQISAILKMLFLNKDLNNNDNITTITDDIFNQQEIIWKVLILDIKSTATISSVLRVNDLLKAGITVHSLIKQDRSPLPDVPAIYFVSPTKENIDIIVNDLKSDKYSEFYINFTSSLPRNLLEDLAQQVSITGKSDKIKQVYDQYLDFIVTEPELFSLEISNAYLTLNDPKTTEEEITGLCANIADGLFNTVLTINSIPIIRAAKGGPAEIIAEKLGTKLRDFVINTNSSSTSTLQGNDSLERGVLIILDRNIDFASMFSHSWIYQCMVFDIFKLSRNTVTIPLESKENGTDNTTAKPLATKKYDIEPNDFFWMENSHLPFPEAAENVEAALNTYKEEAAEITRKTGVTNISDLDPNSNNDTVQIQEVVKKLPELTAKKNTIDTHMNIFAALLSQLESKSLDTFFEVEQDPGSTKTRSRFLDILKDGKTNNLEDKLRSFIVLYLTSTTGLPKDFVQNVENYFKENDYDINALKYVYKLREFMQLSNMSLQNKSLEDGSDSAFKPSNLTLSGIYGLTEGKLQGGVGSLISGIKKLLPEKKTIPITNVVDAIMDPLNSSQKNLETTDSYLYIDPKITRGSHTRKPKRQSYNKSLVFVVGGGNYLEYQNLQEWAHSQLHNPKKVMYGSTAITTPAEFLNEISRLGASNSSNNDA

[2] = target: T2, GST–Sed5p (entire cytosolic region) (S. cerevisiae, UniProt Q01590 1-324)
T2 sequence: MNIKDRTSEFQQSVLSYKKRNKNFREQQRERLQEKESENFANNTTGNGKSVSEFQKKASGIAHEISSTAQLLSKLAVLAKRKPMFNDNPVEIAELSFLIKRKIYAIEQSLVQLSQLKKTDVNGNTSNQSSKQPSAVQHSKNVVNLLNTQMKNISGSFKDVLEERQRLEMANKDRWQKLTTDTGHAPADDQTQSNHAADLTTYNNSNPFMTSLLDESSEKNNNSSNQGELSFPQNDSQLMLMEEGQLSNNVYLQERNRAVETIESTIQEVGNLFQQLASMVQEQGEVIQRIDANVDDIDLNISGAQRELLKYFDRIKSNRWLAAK

[3] = target: T3, GST–Sec22p (yeast, UniProt P22214)
T3 sequence: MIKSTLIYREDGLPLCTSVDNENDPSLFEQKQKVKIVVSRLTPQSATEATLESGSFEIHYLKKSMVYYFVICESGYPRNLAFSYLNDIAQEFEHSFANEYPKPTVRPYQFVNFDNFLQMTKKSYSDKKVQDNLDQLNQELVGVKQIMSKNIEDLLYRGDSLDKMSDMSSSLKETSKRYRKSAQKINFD

[4] = target: T4, preassembled SNARE complex of GST–Sec22p, Sed5p, Bos1p and Bet1p (yeast, UniProt P22214;Q01590;P25385;P22804)
T4 sequence 1: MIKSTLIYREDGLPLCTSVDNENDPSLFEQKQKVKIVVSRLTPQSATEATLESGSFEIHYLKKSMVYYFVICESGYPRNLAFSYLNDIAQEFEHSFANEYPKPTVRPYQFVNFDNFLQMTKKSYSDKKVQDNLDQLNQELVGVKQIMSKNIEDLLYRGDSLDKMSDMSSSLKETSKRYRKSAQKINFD
T4 sequence 2: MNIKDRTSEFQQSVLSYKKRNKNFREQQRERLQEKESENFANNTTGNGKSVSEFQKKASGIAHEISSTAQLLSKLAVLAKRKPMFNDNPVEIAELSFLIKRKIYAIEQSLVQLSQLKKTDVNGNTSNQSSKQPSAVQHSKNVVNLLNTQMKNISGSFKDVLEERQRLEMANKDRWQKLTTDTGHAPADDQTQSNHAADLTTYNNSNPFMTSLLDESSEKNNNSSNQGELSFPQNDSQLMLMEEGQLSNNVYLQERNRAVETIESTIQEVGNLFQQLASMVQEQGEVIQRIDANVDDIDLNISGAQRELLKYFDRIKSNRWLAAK
T4 sequence 3: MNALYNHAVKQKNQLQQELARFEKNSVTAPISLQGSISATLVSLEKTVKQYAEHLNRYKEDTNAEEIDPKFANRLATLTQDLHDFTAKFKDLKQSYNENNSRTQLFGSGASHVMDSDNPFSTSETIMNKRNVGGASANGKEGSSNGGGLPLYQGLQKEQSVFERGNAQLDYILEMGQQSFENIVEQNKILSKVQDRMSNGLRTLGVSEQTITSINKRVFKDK
T4 sequence 4: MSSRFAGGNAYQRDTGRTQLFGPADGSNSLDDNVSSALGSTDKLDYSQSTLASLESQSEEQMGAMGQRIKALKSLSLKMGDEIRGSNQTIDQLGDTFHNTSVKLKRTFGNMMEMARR

[5] = target: T3, GST–Sec22p; remark: listed apart in the source
[6] = target: T3, GST–Sec22p; remark: listed apart in the source
[7] = target: T3, GST–Sec22p; remark: listed apart in the source

B1: His6-Bet1p lacking the COOH-terminal membrane anchor (domain or fragment)
chain: MSSRFAGGNAYQRDTGRTQLFGPADGSNSLDDNVSSALGSTDKLDYSQSTLASLESQSEEQMGAMGQRIKALKSLSLKMGDEIRGSNQTIDQLGDTFHNTSVKLKRTFGNMMEMARR
B1 was tested, and the “stoichiometry N” value [1] was 1.3 per Sed5p, the “stoichiometry N” value [2] was 1.5 per Sed5p and the “stoichiometry of Sly1p–Sed5p–Bos1p–Sec22p–Bet1p in the isolated complex” value [3] was 1.3 molar ratio (GST–Sec22p = 1.4).

B2: His10-Sly1p (NH2-terminally His10-tagged full-length Sly1p) (natural protein)
chain: MAVEEIASRKDISLRDMQISAILKMLFLNKDLNNNDNITTITDDIFNQQEIIWKVLILDIKSTATISSVLRVNDLLKAGITVHSLIKQDRSPLPDVPAIYFVSPTKENIDIIVNDLKSDKYSEFYINFTSSLPRNLLEDLAQQVSITGKSDKIKQVYDQYLDFIVTEPELFSLEISNAYLTLNDPKTTEEEITGLCANIADGLFNTVLTINSIPIIRAAKGGPAEIIAEKLGTKLRDFVINTNSSSTSTLQGNDSLERGVLIILDRNIDFASMFSHSWIYQCMVFDIFKLSRNTVTIPLESKENGTDNTTAKPLATKKYDIEPNDFFWMENSHLPFPEAAENVEAALNTYKEEAAEITRKTGVTNISDLDPNSNNDTVQIQEVVKKLPELTAKKNTIDTHMNIFAALLSQLESKSLDTFFEVEQDPGSTKTRSRFLDILKDGKTNNLEDKLRSFIVLYLTSTTGLPKDFVQNVENYFKENDYDINALKYVYKLREFMQLSNMSLQNKSLEDGSDSAFKPSNLTLSGIYGLTEGKLQGGVGSLISGIKKLLPEKKTIPITNVVDAIMDPLNSSQKNLETTDSYLYIDPKITRGSHTRKPKRQSYNKSLVFVVGGGNYLEYQNLQEWAHSQLHNPKKVMYGSTAITTPAEFLNEISRLGASNSSNNDA
In the case of B2, the “stoichiometry N” value [2] is reported as 1.2 per Sed5p and the “stoichiometry of Sly1p–Sed5p–Bos1p–Sec22p–Bet1p in the isolated complex” value [4] is reported as 1 molar ratio (GST–Sec22p = 1.4).

B3: preformed Sed5p–Sly1p heterodimer in solution (His-Sly1p–His-Sed5p) (complex)
chain 1: MAVEEIASRKDISLRDMQISAILKMLFLNKDLNNNDNITTITDDIFNQQEIIWKVLILDIKSTATISSVLRVNDLLKAGITVHSLIKQDRSPLPDVPAIYFVSPTKENIDIIVNDLKSDKYSEFYINFTSSLPRNLLEDLAQQVSITGKSDKIKQVYDQYLDFIVTEPELFSLEISNAYLTLNDPKTTEEEITGLCANIADGLFNTVLTINSIPIIRAAKGGPAEIIAEKLGTKLRDFVINTNSSSTSTLQGNDSLERGVLIILDRNIDFASMFSHSWIYQCMVFDIFKLSRNTVTIPLESKENGTDNTTAKPLATKKYDIEPNDFFWMENSHLPFPEAAENVEAALNTYKEEAAEITRKTGVTNISDLDPNSNNDTVQIQEVVKKLPELTAKKNTIDTHMNIFAALLSQLESKSLDTFFEVEQDPGSTKTRSRFLDILKDGKTNNLEDKLRSFIVLYLTSTTGLPKDFVQNVENYFKENDYDINALKYVYKLREFMQLSNMSLQNKSLEDGSDSAFKPSNLTLSGIYGLTEGKLQGGVGSLISGIKKLLPEKKTIPITNVVDAIMDPLNSSQKNLETTDSYLYIDPKITRGSHTRKPKRQSYNKSLVFVVGGGNYLEYQNLQEWAHSQLHNPKKVMYGSTAITTPAEFLNEISRLGASNSSNNDA
chain 2: MNIKDRTSEFQQSVLSYKKRNKNFREQQRERLQEKESENFANNTTGNGKSVSEFQKKASGIAHEISSTAQLLSKLAVLAKRKPMFNDNPVEIAELSFLIKRKIYAIEQSLVQLSQLKKTDVNGNTSNQSSKQPSAVQHSKNVVNLLNTQMKNISGSFKDVLEERQRLEMANKDRWQKLTTDTGHAPADDQTQSNHAADLTTYNNSNPFMTSLLDESSEKNNNSSNQGELSFPQNDSQLMLMEEGQLSNNVYLQERNRAVETIESTIQEVGNLFQQLASMVQEQGEVIQRIDANVDDIDLNISGAQRELLKYFDRIKSNRWLAAK
In the case of B3, the “stoichiometry N” value [5] is reported as 0.99 Sed5p per Sec22p, the “stoichiometry N” value [6] is reported as 0.3 Sed5p per Sec22p and the “stoichiometry N” value [7] is reported as 0.44 Sed5p per Sec22p.
